Reference: patent US20210063414A1, “METHODS FOR PREVENTING AND/OR TREATING BONE LOSS CONDITIONS BY MODULATING IRISIN” (Dana-Farber Cancer Institute, Inc., priority 2018, published 2021)

Test system: MLO-Y4 cells
Assay: Integrin-like signaling (pFAK, pZyxin, pAKT, pCREB) in MLO-Y4 cells, immunoblot
Assay type: cell-based
Experimental: Integrin heterodimer binds to its ligand. The interaction results in phosphorylation of FAK and Zyxin, followed by phosphorylation of AKT (at T308) and CREB. PM is plasma membrane. FIG. 2C and FIG. 2D show the immunoblots. MLO-Y4 cells were seeded and incubated until 60% cell density. The cells were incubated with serum free medium (FreeStyle™ 293 medium) for 4 hours and were treated for indicated time with 10 nM norepinephrine or irisin (FIG. 2C) or indicated concentrations of irisin for 10 minutes (FIG. 2D). Cells were lysed to detect the indicated protein level using immunoblot analysis.
Certain materials and methods were used to generate the results described herein. For example, the data shown in FIG. 1A resulted from MLO-Y4 (an osteocyte-like cell line) cells treated with the indicated concentration of irisin and hydrogen peroxide for 4 hours. Cells were stained with Hoechst 33342 (ThermoFisher Scientific, catalog number H3570) and Eth-D1 (ThermoFisher Scientific, catalog number E1169) and analyzed to determine the percentage of cell death using ImageJ. The data shown in FIG. 2D resulted from MLO-Y4 incubated in serum free medium (FreeStyle™ 293 expression medium, ThermoFisher Scientific, catalog number 12338018) for 4 hours followed by treatment of indicated concentrations of irisin for 10 minutes. Cells were lysed to detect the indicated protein level using immunoblot analysis (Cell Signaling Technology, catalog numbers 3283S, 3285S, 8467S, 3553S, 9198S, and 9104S; Abcam, catalog number ab49900-100ul). The data shown in FIG. 3 resulted from 3T3-F442A cells incubated in serum free medium for 4 hours followed by treatment of indicated concentrations of irisin for 10 minutes. Cells were lysed by RIPA buffer to detect the indicated protein level using immunoblot analysis. The data shown in FIG. 4 were generated from 100 nM flag-tagged irisin (Enzo life sciences, catalog number ADI-908-307-3010) incubated with 5 nM of the indicated 6 his-tag integrins (R & D Systems Inc., catalog numbers 7064-AB-025, 5668-A4-050, 5438-A9-050, 6357-AB-050, and 6579-AV-025) in the presence of RGDS peptide (R & D Systems Inc., catalog number 3498/10) or its control peptide (Enzo Life Sciences, catalog Number BML-P701-0005) followed by immunoprecipitation using 6 his-tag beads (ThermoFisher Scientific, catalog number R901-01). Co-precipitated irisin was analyzed by immunoblot analysis against flag tag (Sigma Aldrich, catalog number A8592). The data shown in FIGS. 5A and 5B were generated from MLO-Y4 cells treated and analyzed as in the experiments used to generate the data shown in FIG. 2D, except that pre-treatment of 100 nM RGDS (FIG. 5A) or echistatin (R & D Systems Inc., catalog number 3202/100U) (FIG. 5B) for 10 minutes was performed before irisin treatment. The data shown in FIGS. 6A and 6B were generated from MLO-Y4 cells incubated in serum free medium for 3 hours followed by treatment of indicated time of 10 nM irisin for 16 hours. RNAs were extracted from the cells and the sclerostin mRNA level was analyzed by qPCR (FIG. 6A) or treated and analyzed as in (FIG. 6A), except that pre-treatment of 10 μM RGDS, RGDyK (Selleck, catalog number S7844), or echistatin was performed for 10 minutes before irisin treatment. The data shown in FIGS. 7A and 7B were generated from 8 week-old mice injected with the indicated dose of irisin for 6 days. Tibias were collected and treated with collagenase to obtain mRNA from the osteocyte-enriched bones. Sclerostin mRNA level was analyzed by qPCR (FIG. 7A). Serum was collected to analyze the sclerostin protein level using ELISA kit (R&D Systems Inc., catalog number MSST00) (FIG. 7B). The data shown in FIG. 8 were generated from 8 week-old mice injected with the indicated dose of irisin for 6 days. Epididymal fats were collected, RNAs were extracted from the tissues, and mRNA levels of the indicated genes were analyzed by qPCR. […]

B1: irisin: secreted cleaved form of FNDC5; recombinant human/mouse irisin with C-terminal his tag produced in HEK293 cells (protein)
chain: DSPSAPVNVTVRHLKANSAVVSWDVLEDEVVIGFAISQQKKDVRMLRFIQEVNTTTRSCALWDLEEDTEYIVHVQAISIQGQSPASEPVLFKTPREAEKMASKNKDEVTMKE
modifications: left off: small tags and cut ends
notes: secreted cleaved form of FNDC5; recombinant human/mouse irisin with C-terminal his tag produced in HEK293 cells
phosphorylation of AKT on threonine 308 (MLO-Y4, 10 nM irisin): phosphorylated on threonine 308
phosphorylation of AKT serine at amino acid 473 (MLO-Y4, 10 nM irisin): not induced
time after which CREB was phosphorylated (MLO-Y4, 10 nM irisin): 5 min
time to phosphorylation of FAK (MLO-Y4, 10 nM irisin): 1 min
phosphorylation of Zyxin (MLO-Y4, irisin dose response, 10 minutes): phosphorylated potently
irisin dose as low as which induced phosphorylation of FAK (MLO-Y4, serum free medium 4 hours, irisin 10 minutes): 10 pM
